Reference: the MegaScale stability set (Tsuboyama et al. 2023)

B1: HHH_rd2_0155 (parent)
chain: PPDDERKKAEKAARSGNEEKAREILERLGYSEDEARELAKRLR

Variants of: B1
Experiment: folding stability dG (cDNA display proteolysis); higher = more stable
Settings: PBS, room temperature

Variant	folding stability dG
I24M	1.43 kcal/mol
I24Y	1.44 kcal/mol
I24N	0.514 kcal/mol
I24S	0.659 kcal/mol
I24R	0.756 kcal/mol
I24L	1.57 kcal/mol
I24H	1.11 kcal/mol
I24F	1.3 kcal/mol
I24K	0.671 kcal/mol
I24T	0.469 kcal/mol
I24V	0.856 kcal/mol
I24D	0.375 kcal/mol
I24Q	0.718 kcal/mol
I24W	1.38 kcal/mol
I24A	0.975 kcal/mol
I24G	0.167 kcal/mol
I24E	0.689 kcal/mol
I24P	0.158 kcal/mol
E19K	2.18 kcal/mol
E19Y	1.79 kcal/mol
E19W	1.94 kcal/mol
E19D	2.03 kcal/mol
E19N	1.81 kcal/mol
E19P	1.61 kcal/mol

Variant	folding stability dG
E19L	2.15 kcal/mol
E19R	2.16 kcal/mol
E19C	2.27 kcal/mol
E19S	1.9 kcal/mol
E19I	2.05 kcal/mol
E19H	1.7 kcal/mol
E19Q	2.05 kcal/mol
E19M	2.22 kcal/mol
E19G	1.6 kcal/mol
E19A	2.3 kcal/mol
E19F	1.91 kcal/mol
E19V	1.95 kcal/mol
E19T	2.05 kcal/mol
K20A	2.1 kcal/mol
K20L	2.97 kcal/mol
K20R	1.89 kcal/mol
K20D	1.33 kcal/mol
K20S	1.61 kcal/mol
K20F	1.92 kcal/mol
K20H	1.73 kcal/mol
K20E	2.11 kcal/mol
K20P	0.917 kcal/mol
K20N	1.21 kcal/mol
K20W	1.98 kcal/mol

Variant	folding stability dG
K20T	1.77 kcal/mol
K20I	1.9 kcal/mol
K20G	1.66 kcal/mol
K20Y	2.11 kcal/mol
K20V	2.05 kcal/mol
K20Q	1.86 kcal/mol
K20M	2.19 kcal/mol
N17R	1.46 kcal/mol
N17Q	1.81 kcal/mol
N17V	0.993 kcal/mol
N17W	1.98 kcal/mol
N17T	0.954 kcal/mol
N17Y	1.71 kcal/mol
N17S	1.4 kcal/mol
L25Y	1.87 kcal/mol
L25G	0.372 kcal/mol
L25E	0.37 kcal/mol
L25H	-0.026 kcal/mol
L25M	0.884 kcal/mol
L25N	0.253 kcal/mol
L25R	0.127 kcal/mol
L25D	0.2 kcal/mol
L25Q	0.444 kcal/mol
L25A	0.215 kcal/mol

Variant	folding stability dG
L25T	0.034 kcal/mol
L25F	2.35 kcal/mol
L25W	1.64 kcal/mol
L25K	-0.071 kcal/mol
L25I	0.435 kcal/mol
L25S	0.333 kcal/mol
L25P	-0.039 kcal/mol
L25V	0.267 kcal/mol
E18G	1.19 kcal/mol
E18T	1.8 kcal/mol
E18Q	1.5 kcal/mol
E18L	2.8 kcal/mol
E18S	1.37 kcal/mol
E18K	0.82 kcal/mol
E18Y	2.25 kcal/mol
E18D	1.53 kcal/mol
E18F	2.24 kcal/mol
E18N	1.17 kcal/mol
E18M	2.61 kcal/mol
E18V	2.3 kcal/mol
E18R	0.996 kcal/mol
E18I	2.6 kcal/mol
E18H	1.44 kcal/mol
E18W	2.32 kcal/mol

Variant	folding stability dG
E18A	1.57 kcal/mol
E18P	1.23 kcal/mol
R22S	1 kcal/mol
R22M	1.88 kcal/mol
R22L	1.4 kcal/mol
R22V	2.21 kcal/mol
R22Q	1.41 kcal/mol
R22T	1.27 kcal/mol
R22W	1.13 kcal/mol
R22D	0.179 kcal/mol
R22F	1.09 kcal/mol
R22N	0.74 kcal/mol
R22P	0.374 kcal/mol
R22Y	1.33 kcal/mol
R22I	2.21 kcal/mol
R22K	1.44 kcal/mol
R22H	0.903 kcal/mol
R22E	0.77 kcal/mol
R22A	1.58 kcal/mol
R22G	0.568 kcal/mol
A21Q	0.924 kcal/mol
A21N	0.934 kcal/mol
A21V	1.27 kcal/mol
A21H	0.916 kcal/mol

Variant	folding stability dG
A21S	1.23 kcal/mol
A21M	1.46 kcal/mol
A21K	0.641 kcal/mol
A21C	1.87 kcal/mol
A21G	0.961 kcal/mol
A21Y	1.52 kcal/mol
A21L	1.81 kcal/mol
A21I	1.68 kcal/mol
A21T	1.08 kcal/mol
A21R	0.974 kcal/mol
A21D	0.869 kcal/mol
A21E	0.697 kcal/mol
A21F	1.63 kcal/mol
A21P	0.632 kcal/mol
E26I	2.65 kcal/mol
E26K	2.41 kcal/mol
E26F	1.47 kcal/mol
E26R	2.65 kcal/mol
E26S	1.72 kcal/mol
E26P	-0.06 kcal/mol
E26A	1.73 kcal/mol
E26L	2.56 kcal/mol
E26G	1.5 kcal/mol
E26D	0.509 kcal/mol

Variant	folding stability dG
E26N	1.22 kcal/mol
E26M	3.05 kcal/mol
E26Q	2.39 kcal/mol
E26H	1.82 kcal/mol
E23I	1.93 kcal/mol
E23M	2.03 kcal/mol
E23W	1.83 kcal/mol
E23F	1.61 kcal/mol
E23K	2.12 kcal/mol
E23H	1.85 kcal/mol
E23P	0.763 kcal/mol
E23D	1.54 kcal/mol
E23A	2.06 kcal/mol
E23R	2.21 kcal/mol
E23N	1.52 kcal/mol
E23S	1.73 kcal/mol
E23G	1.4 kcal/mol
E23T	1.69 kcal/mol
E23Q	2.18 kcal/mol
E23V	1.72 kcal/mol
E23Y	1.68 kcal/mol
E23L	2.19 kcal/mol
E23C	2.35 kcal/mol
